{"source": "paper PMC10037368", "about": "(2023)", "binders": {"B1": {"name": "Sb92 sherpabody (designed binder)", "chain": "EEYIAVGDFFSTDPADLTFKKGEILLVIERGTSAGDGWWIAKDAKGNEGLVPRTYLEPYS"}}, "target": "Spike glycoprotein (Wuhan-Hu-1) RBD (Severe acute respiratory syndrome …, UniProt P0DTC2)", "experiment": "ELISA", "data": [{"binder": "B1", "values": [{"measurement": "Kd", "result": 30, "unit": "nM"}]}]}
